Consider 62 sequences from the supplement of paper PMC9112550, “Optimization of the antimicrobial peptide Bac7 by deep mutational scanning” (BMC Biology, 2022).

This data set deals with Escherichia coli TOP10. In words: shrunken log2 fold change of peptide-encoding DNA abundance (4.5 h post-induction vs induction); higher = less antimicrobial activity (less host growth inhibition). As to conditions: time post-induction: 4.5 h; library: site-saturation at positions 5, 18, 19, 20.
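Note: peptides expressed intracellularly from a pBAD plasmid library in pooled LB shake-flask culture, induced with 0.3% L-arabinose, DNA abundance read by NGS, three biological replicates, DESeq2 with apeglm shrinkage.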

In the case of RRIRWRPPRLPRPRPRPQHVPRP, the “shrunken log2 fold change” value was -0.274.

Consider RRIRARPPRLPRPRPRPPEWPRP, for which the “shrunken log2 fold change” value was 0.734. Regarding RRIRQRPPRLPRPRPRPCYNPRP, the “shrunken log2 fold change” value was -0.0459. As for RRIRVRPPRLPRPRPRPKPIPRP, the figure is -0.0649. For RRIRDRPPRLPRPRPRPAIPPRP, the “shrunken log2 fold change” value was -0.538. Turning to RRIRSRPPRLPRPRPRPDCKPRP, the “shrunken log2 fold change” value is -0.0745. Then RRIRTRPPRLPRPRPRPRHVPRP, with 0.0629; and RRIRFRPPRLPRPRPRPESQPRP, with -0.0723. In the case of RRIRPRPPRLPRPRPRPGLMPRP, the “shrunken log2 fold change” value is 0.184.

For the sequence RRIRMRPPRLPRPRPRPRLNPRP, the “shrunken log2 fold change” value worked out at 0.305.

For RRIRRRPPRLPRPRPRPIIMPRP, the “shrunken log2 fold change” value is -0.444. For the sequence RRIRNRPPRLPRPRPRPANGPRP, the “shrunken log2 fold change” value stood at 0.0343. Turning to RRIRKRPPRLPRPRPRPKRAPRP, the “shrunken log2 fold change” value amounted to 1.04.

As to RRIRIRPPRLPRPRPRPLKYPRP, the “shrunken log2 fold change” value was -0.0551. For RRIRTRPPRLPRPRPRPHIVPRP, the “shrunken log2 fold change” value is -0.102.

For RRIRVRPPRLPRPRPRPPFSPRP, the “shrunken log2 fold change” value was found to be 0.15. As for RRIRGRPPRLPRPRPRPTIAPRP, the figure is 0.895. RRIRKRPPRLPRPRPRPHIIPRP: the “shrunken log2 fold change” value is 0.0119. For the sequence RRIRIRPPRLPRPRPRPGMWPRP, the “shrunken log2 fold change” value was found to be 0.0422. As to RRIRRRPPRLPRPRPRPMFCPRP, the “shrunken log2 fold change” value was 0.235. As for RRIRNRPPRLPRPRPRPNDPPRP, the “shrunken log2 fold change” value was determined as 0.188. Turning to RRIRSRPPRLPRPRPRPKSYPRP, the “shrunken log2 fold change” value was -0.231. As for RRIRIRPPRLPRPRPRPKYPPRP, the “shrunken log2 fold change” value is -0.121. Regarding RRIRNRPPRLPRPRPRPDKVPRP, the “shrunken log2 fold change” value is -0.00145.

Take RRIRERPPRLPRPRPRPFSHPRP: the “shrunken log2 fold change” value was -0.153. As for RRIRGRPPRLPRPRPRPCGAPRP, the “shrunken log2 fold change” value worked out at 1.16. As for RRIRWRPPRLPRPRPRPCPGPRP, the “shrunken log2 fold change” value is -0.218. Take RRIRNRPPRLPRPRPRPPRNPRP: the “shrunken log2 fold change” value turned out to be 0.196. Regarding RRIRQRPPRLPRPRPRPATLPRP, the “shrunken log2 fold change” value is -0.0197. For the sequence RRIRGRPPRLPRPRPRPMICPRP, the “shrunken log2 fold change” value worked out at 0.166. For the sequence RRIRLRPPRLPRPRPRPHKKPRP, the “shrunken log2 fold change” value is -0.163.

Consider RRIRSRPPRLPRPRPRPYCLPRP, for which the “shrunken log2 fold change” value is -0.434. Consider RRIRHRPPRLPRPRPRPVETPRP, for which the “shrunken log2 fold change” value was 0.0401.

For the sequence RRIRPRPPRLPRPRPRPLWWPRP, the “shrunken log2 fold change” value stood at 0.649. As for RRIRMRPPRLPRPRPRPGAYPRP, the figure is 0.0666.

On to RRIRGRPPRLPRPRPRPEKEPRP, for which the “shrunken log2 fold change” value amounted to 0.0374. As for RRIRYRPPRLPRPRPRPGQYPRP, the figure is -0.414; as for RRIRWRPPRLPRPRPRPFICPRP, -0.309. RRIRDRPPRLPRPRPRPRVLPRP: the “shrunken log2 fold change” value stood at 0.173.

On to RRIRMRPPRLPRPRPRPLNKPRP, for which the “shrunken log2 fold change” value came to 0.118. Take RRIRQRPPRLPRPRPRPDPKPRP: the “shrunken log2 fold change” value is 0.0129. Then RRIRFRPPRLPRPRPRPSIRPRP, with -0.288; and RRIRTRPPRLPRPRPRPMRIPRP, with -0.0254. Then RRIRLRPPRLPRPRPRPVNQPRP, with -0.138. Take RRIRARPPRLPRPRPRPWPKPRP: the “shrunken log2 fold change” value came out at 0.508. For the sequence RRIRHRPPRLPRPRPRPEVRPRP, the “shrunken log2 fold change” value was -0.00149.

For RRIRYRPPRLPRPRPRPNHGPRP, the “shrunken log2 fold change” value is -0.0102. As to RRIRLRPPRLPRPRPRPTIKPRP, the “shrunken log2 fold change” value was -0.395. For the sequence RRIRCRPPRLPRPRPRPQEYPRP, the “shrunken log2 fold change” value was -0.399. For RRIRMRPPRLPRPRPRPPWKPRP, the “shrunken log2 fold change” value was 0.567.

On to RRIRWRPPRLPRPRPRPLFKPRP, for which the “shrunken log2 fold change” value is -0.242. Then RRIRARPPRLPRPRPRPTEHPRP, with 0.46; and RRIRMRPPRLPRPRPRPRGNPRP, with 0.37. Then RRIRRRPPRLPRPRPRPPSVPRP, with 0.545; and RRIRVRPPRLPRPRPRPGQPPRP, with 0.0218. As to RRIRPRPPRLPRPRPRPHIWPRP, the “shrunken log2 fold change” value was -0.3. In the case of RRIRNRPPRLPRPRPRPTQPPRP, the “shrunken log2 fold change” value was 0.6. For the sequence RRIRYRPPRLPRPRPRPIKKPRP, the “shrunken log2 fold change” value came to 0.017. As for RRIRGRPPRLPRPRPRPMGQPRP, the figure is 0.651; as for RRIRIRPPRLPRPRPRPWFMPRP, -0.503. Regarding RRIRDRPPRLPRPRPRPWKYPRP, the “shrunken log2 fold change” value is -0.331. RRIRGRPPRLPRPRPRPTRPPRP: the “shrunken log2 fold change” value stood at 1.16.
